B1: TPR t1 (parent)
chain: GACCAAUCUGCCCUCAGAGCUCGAGAACAUCUUCGGAUGCAGAGGAGGCAGGCUUCGGUGGCGCGAUAGCGCCAACGUCCUCAACCUCCAAUGCAUCCCACCACAUGAUGAUGCCUGAAGAGCCUUGGUUUUUUG

Variants of: B1
Test: polymerase ribozyme fitness, log enrichment relative to wild type (log ratio); higher = more active; in vitro selection for triplet polymerase activity
How it was run: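 Fitness compares each genotype's enrichment to that of the wild type on a logarithmic scale, averaging replicates with inverse-variance weights. The logarithm is base 2. Enrichment came from Illumina sequencing of input and output libraries after one triplicate round of in vitro selection, which included frozen incubation at −7 °C, of PCR-built, transcribed mutant libraries of each subunit of a heterodimeric triplet polymerase ribozyme. Only genotypes with ≥10 input reads and ≥1 read per output were kept.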

| Variant | polymerase ribozyme fitness (log ratio) |
| --- | --- |
| GACCAAUCUGCCCUCAAAGCUCGAGAACAUCUUCGGAUGCAGAGGAGGCAGGCUUCGGUGGCGCGAUAGCGCCAACGUGCUCAACCUCCAAUGCAUCCCACCACAUGAUGAUGCCUGAAGAGCGAUGGUUUUUUG [G17A C79G C124G U125A] | -4.5 |
| GACCAAUCUGCCCUCAAAGCUCGAGAAGAUCUUCGGAUGCAGAGGAGACAGGCUUCGGUGGCGCGAUAGCGCCAACGUCCUCAACCUCCAAUGCAGCCCGCCACAUGAUGAGGCCUGAAGCGCCUUGGUUUUUUG [G17A C28G G48A U96G A100G U112G A121C] | -6.43 |
| GACCAAUCUGCCCUCAAAGCUCGAGAACAUCUUCGGAUGCAGAGGAGGCAGGCUUCGGUGGCGCGAUAGCGCCAACGUCCUCAACCUCCAAUGCAUCCCACCACAUGAUGAUGACUGAAGAGCCUUGGUUUUUUG [G17A C114A] | -5.13 |
| GACCAAUCUGCCCUCAAAGCUCGAGAACAUCUUCGGAUGCAGAGGAGGCAGGCUUCGGUGGCGCGAUAGCGCCAACGUCCUCAAUCUCCACUGCAUCCCACCACAUGGUGCUGCCUGAAGAGCUUUGGUUUUUUG [G17A C85U A91C A108G A111C C124U] | -6.83 |
| GACCAAUCUGCCCUCAAAGCUCGAGAACAUCUUCGGAUGCAGAGGAGGCAGGCUUCGGUGGCGCGAUAGCGCCAACGUCCUCAACCUCCAAUGCAUCCCACCACAUGAUGAUGCUCGAAGAGCCUUGGUUUUUUG [G17A C115U U116C] | -6.73 |
| GACCAAUCUGCCCUCAACGCUUGAGAACAUCUUCAGAUGCAGAGGAGGCAGGCUUCGGUGGCGCGAUAGAGCCAACGUGCUCAACCUCCGAUGCAUCCAACCACAUGAUGAUGCCUGAAGAGCGUUGGUUUUUUG [G17A A18C C22U G35A C70A C79G A90G C99A C124G] | -5.86 |
| GACCAAUCUGCCCUCAAAGCUCGAGAACAUCUUCGGUUGCAGAGGAGGCAGGCUUCGGUGGCGCGAUAGCGCCAACGUCCUCAACCUCCAAUGCAUCCCACCACAUGAUGAUGCUUGAAGAGCCUUGGUUUUUUG [G17A A37U C115U] | 0.842 |
| GACCAAUCUGCCCUCAAAGCUCGAAAACAUCUUCGGAUGCAGAGGAGGCACGGUUCGGUGGCGCGAUAGCGCCAACGUCCUCAACCUCCAAUGCAUCCCACCACAUGAUGCUGCCUGAAGAGCCUUGGUUUUUUG [G17A G25A G51C C53G A111C] | -6.66 |
| GACCAAUCUGCCCUCAAAGCUCGAGAACAUCUUCGGAUGCAGAGGAGGCAGGCUUCGGUGGUGCGAUAGCGCCAACGUCCUCAACCUCCAAUGCAUCCCACCACAUGAUGAUGCCUGAAGAGCCUUGGUUUUUUG [G17A C62U] | -3.04 |
| GACCAAUCUGCCCUCAAAGCUCGAGAACAUCUUCGGAUGCAGAGGAGGCAGGCUUCGGUGGAGCGAUAGCGCCAACGUCCUCAACCUCCAAUGCAUCCCACCACAUGAUGAUGCCUGAAGAGCCUUGGUUUUUUG [G17A C62A] | -4.08 |
| GACCAAUCUGCCCUCAAAGCUCGAGAACAUCUUCGGAUGCAGAGGAGGCAGGCUUCGGUGGCGCGAUAGCGCCAACGUCCUCAACCUCCAAUGCAUCUCACCACAUGAUGAUGCCUGAAGAGCCUUGGUUUUUUG [G17A C98U] | -5.09 |
| GACCAAUCUGCCCUCAAAGCUCGAGAACAUCUUCGGAUGCAGAGGAGGCAGGCUUCGGUGGCGCGAUAGCGUCAACGUCCUCAACCUCCAAUGCAUCCCACCACAUGAUGAUGUCUGAAGAGCCUUGGUUUUUUG [G17A C72U C114U] | -5.33 |
| GACCAAUCUGCCCUCAAAGCUCGAGAAUAUCUUCGGAUGCAGAGGAGGCAGGCUUCGGUGGUGCGAUAGCGCCAACGUCCUCAACCUCCAAUGCAUCCCACCACAUGAAGAUGCCGGAAGAGCCUUGGUUUUUUG [G17A C28U C62U U109A U116G] | -5.8 |
| GACCAAUCUGCCCUCAAAGCUCGAGAACAUCUUCGGAUGCAGAGGAGGCAGGCUUCGGUGGCGCGAUAGCGCUAACGUCCUCAACCUCCAAUGCAUCCCACCACAUGAUGAUGCCUGAAGAGCCUUGGUUUUUUG [G17A C73U] | -2.84 |
| GACCAAUCUGCCCUCAAAGCUCGAGAACAUCUUCGGAUGCAGAGGAGGCAGGCUUCGGUGGCGCGAUAGCGCCAACGUCCUCAUCCUCCAAUGCAUCCCACCACAUGAUGAUGCCUGAAGAGCCUUGGUUUUUUG [G17A A84U] | -2.87 |
| GACCAAUCUGCCCUCAAAGCUCGAGAACAUCUUCGGAUGCAGAGGAGGCAGGCUUCGGUGGCGCGAUAGCGGCAACGUCCUCAACCUCCAAUGCAACCCACCACAUGAUGAUGCCUGAAGAGCCUUGGUUUUUUG [G17A C72G U96A] | -4.81 |
| GACCAAUCUGCCCUCAAAGCUCGAGAACAUCUUCGGAUGCAGAGGAGGCAGGCUUCGGUGGGACGAUAGCGCCCACGUCCUCAACCUCCCAUGCAUCCCACCACAUGAGGAUGCCUGAAGAGCCUUGGUUUUUUG [G17A C62G G63A A74C A90C U109G] | -5.9 |
| GACCAAUCUGCCCUCAAAGCUCGAGAACAUCUUCGGAUGCAGAGGAGGCAGGCUUCGGUGGCGCGAUAGCGCCUACGUCCUCAACCUCCAAUGCAUCCCACCACAUGAUGAUGCCUGAAGAGCCUUGGUUUUUUG [G17A A74U] | -4.06 |
| GACCAAUCUGCCCUCAAAGCUCGAGACCAUCUUCGGAUGCAGAGGAGGCAGGCUUCCGUGGCGCGAUAGCGCAAACGUCCUCAACCUCCAAUUCAUCCCACCACAUGAUGAUCCCUGCAGAGCCAUGGUUUUUUG [G17A A27C G57C C73A G93U G113C A118C U125A] | -7.69 |
| GACCAAUCUGCCCUCAAAGCUCGAGAACAUCUUCGGAUGCCGUCGAGGCAGGCUUCGGUGGCGCGAUAGCGCCAACGUCCUCAACCUCCAAUGCAUCCCACCACAUGAUGAUGCCUGAAGAGCCUUGGUUUUUUG [G17A A41C A43U G44C] | -5.92 |
| GACCAAUCUGCCCUCAAAGCUCGAGAACAUCUUCGGAUGCAGAGGAGGCAGGCUUCGGUGGCGCGAUAGCGCCAACGUCCUCAACCUUCAAUGCACCCCACCACAUGAUGAUGCCUGAAGAGCCUUGGUUUUUUG [G17A C88U U96C] | -3.71 |

| Variant | polymerase ribozyme fitness (log ratio) |
| --- | --- |
| GACCAAUCUGCCCUCAAAGCUCGAGAACAUCUUCGGAUGCAGAGGAGGCAGGCUUGGGUGGCGCGAUAGCGCCAACGUCCUCAACCUCCAAUGCAUCCCACCACAUGAUGAUGCCUGAAGAGCCUUGGUUUUUUG [G17A C56G] | -3.4 |
| GACCAAUCUGCCCUCAAAGCUCGAGAACAUCUUCGGAUGCAGAGGAGGCAGGCUUCGGUGGCGCGAUAGCGCAAACGUCCUCAACCUCCAAUGCAUCCCACCACAUGAUGAUGCCUGAACAGCCUUGGUUUUUUA [G17A C73A G120C G135A] | -1.5 |
| GACCAAUCUGCCCUCAAAGCUAGAGAACAUCUUCGGAUGCAGAGGAGGCAGGCUUCGGUGGCGCGAUAGCGCCAACGUCCUCAACCUCCAAUGCAUCCCACCACAUGAUGAUGCCUGAAGAGCCUUGGUUUUUUG [G17A C22A] | -5.66 |
| GACCAAUCUGCCCUCAAAGCUCGAGAACAUCUUCGGAUGCAGAGGAGGCAGGCUUCGGUGGCGCGAUAGCGCCAACGUCCUCGACCUCCAAUGCAUCCCACCACAUGAUGAUGCCUGAAGAGCCUUGGUUUUUUG [G17A A83G] | -3.95 |
| GACCAAUCUGCCCUCAAAGCUCGAGAACAUCUUCGGAUGCAGAGGAGGCAGGCUUCGGUGGCGCGAUAGCGUCAACGUCCUCAACCUCCUAUGCAUCCCACCACAUGAUGAUGCCUGAAGGGCCUUGGUUUUUUG [G17A C72U A90U A121G] | 0.0637 |
| GACCAAUCUGCCCUCAAAGCUCGAGAACAUCUUCGGAUGCAGAGGAGGCAGGCUUCGGUGGCGCGAUAGAGCCAACGUCCUCAACCUCCAAUGCAUCCCACCACAUGAUGAUGCCUGAAGAGCCUUGGUUUUUUG [G17A C70A] | -4.58 |
| GACCAAUCUGCCCUCAAAGCUCGAGAACAUCUUCGGAUACAGAGGAGGCAGGCUUCGGUGGCGCGAUAGCGCCAACGUUCUCAACCUCCAAUGCAUCCCACCACAUGAUCAUGCCUGAAGAGCCUUGGUUUUUUG [G17A G39A C79U G110C] | -7.24 |
| GACCAAUCUGCCCUCAAAGCUCGAGAACAUCUUCGGAUGCAGAGGAGGCAGGCUUCGGUGGCGCGAUAGCGCCAACGUCCUCAACCUCCACUGCAUCCCACCACAUGAUGAUGCCUGAAGAGCAUUGGUUUAUUG [G17A A91C C124A U132A] | -0.557 |
| GACCAAUCUGCCCUCAAAGCUCGAGAACAUCUUCGGAUGCAGAGGAGGCAGGCUUAGGUGGCGCGAUAGCGCCAACGUCCUCAACCUCCAAUUCAUCCCACCACAUGAUGAUGCCUGAAGAGCCUUGGUUUUUUG [G17A C56A G93U] | -4.99 |
| GACCAAUCUGCCCUCAAAGCUCAAGAACAUCUUCGGAUGCAGAGGAGGCAGGCUUCGGUGGCGAGAUAGCGCCAACGUCCUCAACCUCCAAUGCAUCCCACGACAUGAAGAUGCCUGAAGAGCCUUGGUUUUUUG [G17A G23A C64A C102G U109A] | -6.59 |
| GACCAAUCUGCCCUCAAAGCUCGAGAACAUCUUCGCAUGCAGAGGAGGCAGGCUUCGGUGGCGCGAUAGCGCCAACGUCCUCAACCUCCAAUGCAUCCCACCACAUGAUGAUGCCUGAAGAGCCUUGGUUUUUUG [G17A G36C] | -3.9 |
| GACCAAUCUGCCCUCAAAGCUCGAGAACAUCUUCGGAUGCAGAGGAGGCAGGCUUCGGUGGCGCGAUAGCGGCAACGUCCUCAACCUCCAAUGCAUCCCACCACAUGAUGAUGCCUGAAGAGCGUUGGUUUUUUG [G17A C72G C124G] | -0.994 |
| GACCAAUCUGCCCUCAAAGCUCGAGAACAUCUUCGGAUGCAGAGGAGGCAGGCUUCGGUGGCGCGAUAGCGCCAACGUCCUCACCCACCAAUGCAGCCCACCACAUGAUGAUGCCUGAAGAGCCUUGGUUUUUUG [G17A A84C U87A U96G] | -4.16 |
| GACCAAUCUGCCCUCAAAGCUCGAGAACAUCUUUGGAUGCAGAGGAGGCAGGCUUCGGUGGCGCGAUAGCGCCAACGUCCUCAACCUCCAAUGCAUCUCACCACAUGAUGAUGCCUGAAGAGCAUUGGUUUUUUG [G17A C34U C98U C124A] | -5.98 |
| GACCAAUCUGCCCUCAAAGCUCGAGAACAUCUUCGGAUGCAGAGGAGGCAGGCUUCGGUGGCGCGAUAGUGCCAACGUCCUCAACCUCCAAUGCAUCCCACCACAUGAUGAUGCCUGAAUAGCCUUGGUUUUUUG [G17A C70U G120U] | -2.58 |
| GACCAAUCUGCCCUCAAAGCUCGAGAACAUCUUCGGAUGCAGAGGAGGCAGGCUUCGGUGGCGCGAUAGCGCCAACGUCCUCAACCUCCCAUGCGUCCCACCAUAUGAUGAUGCCUGAUGAGCCUUGGUUUUUUG [G17A A90C A95G C104U A119U] | -3 |
| GACCAAUCUGCCCUCAAAGCUCGAGAACAUCUUCGGAUGCAGAGGAGGCAGGCUUCGGUGGCGCGAUAGCGCCAACGUCCUCAACCUCCAAUGCAUCCCAGCACAUGAUGAUGCCUGAAGAGCCUUGGUUUUUUG [G17A C101G] | -5.5 |
| GACCAAUCUGCCCUCAAAGCUCGAGAACAUCUUCGGAUGCAGAGGAGGCAGGCUUCGGUGGCGCGAUAGCGCCAACGUCCUCAACCUCGAAUGCAUCCCACCACAUGAUGAUGCCUGAAGAGCCUUGGUUUUUUG [G17A C89G] | -3.97 |
| GACCAAUCUGCCCUCAAAGCUCGAGAACAUCUUCGGAUGCAGAGGAGGCAGGCUUCGGUGGCGCGAUAGCGCCAACGUCCUCAACCUCUAAUGCAUCCCACCACAUGAUGAUGCCUGAAGAGCCUUGGUUUUUUG [G17A C89U] | -3.72 |
| GACCAAUCUGCCCUCAAAGCUCGAGAACAUCUUCGGAUGCAGAGGAGGCAGGCUUCGGUGGCGCGAUAGCGCCAACGUCCUCAACCUCCAAUGCAUCCCACCACAUGAUGAUGCCUGAAGAGACUUGGUUUUUUG [G17A C123A] | -3.08 |
| GACCAAUCUGCCCUCAACGCUCGAGAACAUCUUCGGAUGCAGAGGAGGCAGGCUUCGGUGGCGCGAUAGCGCCAACGUCCUCAACGUCCAAUGCAUCCCACCACAUGAUGAUGCCUGAAGAGCCUUGGUUUUUUG [G17A A18C C86G] | -3.63 |

Reference: the RNAGym collection of RNA variant scans (doi:10.1073/pnas.2313332121)
